Experiment [1] has as its target wild type human lysozyme (human) (UniProt P61626).
In experiment [2] the target is lysozyme variant 2-3-7 (human).
Experiment [3] has as its target lysozyme variant 2-3-7 (human). The source holds these as a separate data set.

Regarding mucin, the IC50 - Mucin (µg/mL): concentration of polyanion that inhibits lytic activity of the enzyme on Micrococcus luteus by 50% in experiment [1] amounted to 11 µg/mL; in experiment [2], 73 µg/mL. Further, the fold increase in IC50 for mucin against WT-LYZ in experiment [3] stood at 6.91 fold.

The record behind these values is patent publication US20170128546A1.
